B1: PABP4_HUMAN (protein, UniProt Q13310 1-644, looked up)
Polyadenylate-binding protein …: MNAAASSYPMASLYVGDLHSDVTEAMLYEKFSPAGPVLSIRVCRDMITRRSLGYAYVNFQQPADAERALDTMNFDVIKGKPIRIMWSQRDPSLRKSGVGNVFIKNLDKSIDNKALYDTFSAFGNILSCKVVCDENGSKGYAFVHFETQEAADKAIEKMNGMLLNDRKVFVGRFKSRKEREAELGAKAKEFTNVYIKNFGEEVDDESLKELFSQFGKTLSVKVMRDPNGKSKGFGFVSYEKHEDANKAVEEMNGKEISGKIIFVGRAQKKVERQAELKRKFEQLKQERISRYQGVNLYIKNLDDTIDDEKLRKEFSPFGSITSAKVMLEDGRSKGFGFVCFSSPEEATKAVTEMNGRIVGSKPLYVALAQRKEERKAHLTNQYMQRVAGMRALPANAILNQFQPAAGGYFVPAVPQAQGRPPYYTPNQLAQMRPNPRWQQGGRPQGFQGMPSAIRQSGPRPTLRHLAPTGSECPDRLAMDFGGAGAAQQGLTDSCQSGGVPTAVQNLAPRAAVAAAAPRAVAPYKYASSVRSPHPAIQPLQAPQPAVHVQGQEPLTASMLAAAPPQEQKQMLGERLFPLIQTMHSNLAGKITGMLLEIDNSELLHMLESPESLRSKVDEAVAVLQAHHAKKEAAQKVGAVAAATS
B2: PLOD2_HUMAN (protein, UniProt O00469 26-737, looked up)
Procollagen-lysine,2-oxoglutar …: ADSEKPSSIPTDKLLVITVATKESDGFHRFMQSAKYFNYTVKVLGQGEEWRGGDGINSIGGGQKVRLMKEVMEHYADQDDLVVMFTECFDVIFAGGPEEVLKKFQKANHKVVFAADGILWPDKRLADKYPVVHIGKRYLNSGGFIGYAPYVNRIVQQWNLQDNDDDQLFYTKVYIDPLKREAINITLDHKCKIFQTLNGAVDEVVLKFENGKARAKNTFYETLPVAINGNGPTKILLNYFGNYVPNSWTQDNGCTLCEFDTVDLSAVDVHPNVSIGVFIEQPTPFLPRFLDILLTLDYPKEALKLFIHNKEVYHEKDIKVFFDKAKHEIKTIKIVGPEENLSQAEARNMGMDFCRQDEKCDYYFSVDADVVLTNPRTLKILIEQNRKIIAPLVTRHGKLWSNFWGALSPDGYYARSEDYVDIVQGNRVGVWNVPYMANVYLIKGKTLRSEMNERNYFVRDKLDPDMALCRNAREMGVFMYISNRHEFGRLLSTANYNTSHYNNDLWQIFENPVDWKEKYINRDYSKIFTENIVEQPCPDVFWFPIFSEKACDELVEEMEHYGKWSGGKHHDSRISGGYENVPTDDIHMKQVDLENVWLHFIREFIAPVTLKVFAGYYTKGFALLNFVVKYSPERQRSLRPHHDASTFTINIALNNVGEDFQGGGCKFLRYNCSIESPRKGWSFMHPGRLTHLHEGLPVKNGTRYIAVSFIDP
B3: MTA2_HUMAN (protein, UniProt O94776 1-668, looked up)
Metastasis-associated protein …: MAANMYRVGDYVYFENSSSNPYLVRRIEELNKTANGNVEAKVVCLFRRRDISSSLNSLADSNAREFEEESKQPGVSEQQRHQLKHRELFLSRQFESLPATHIRGKCSVTLLNETDILSQYLEKEDCFFYSLVFDPVQKTLLADQGEIRVGCKYQAEIPDRLVEGESDNRNQQKMEMKVWDPDNPLTDRQIDQFLVVARAVGTFARALDCSSSIRQPSLHMSAAAASRDITLFHAMDTLQRNGYDLAKAMSTLVPQGGPVLCRDEMEEWSASEAMLFEEALEKYGKDFNDIRQDFLPWKSLASIVQFYYMWKTTDRYIQQKRLKAAEADSKLKQVYIPTYTKPNPNQIISVGSKPGMNGAGFQKGLTCESCHTTQSAQWYAWGPPNMQCRLCASCWIYWKKYGGLKTPTQLEGATRGTTEPHSRGHLSRPEAQSLSPYTTSANRAKLLAKNRQTFLLQTTKLTRLARRMCRDLLQPRRAARRPYAPINANAIKAECSIRLPKAAKTPLKIHPLVRLPLATIVKDLVAQAPLKPKTPRGTKTPINRNQLSQNRGLGGIMVKRAYETMAGAGVPFSANGRPLASGIRSSSQPAAKRQKLNPADAPNPVVFVATKDTRALRKALTHLEMRRAARRPNLPLKVKPTLIAVRPPVPLPAPSHPASTNEPIVLED

Tested on: KDM4A-I71AzF
Assay: CASI: photo-crosslinking with HEK293T cell extracts, StrepTactin enrichment and LC-MS/MS proteomics;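 also: lysates from HEK293T cells pretreated with a KDM4 inhibitor to raise proteome methylation, affinity-purified after ±UV, gel-resolved, trypsin-digested, with exclusive unique peptides per protein averaged per condition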
Format: binding, human
Settings: sheet "Final results but with 0.01"

Point of comparison: B2, “Fold change (+UV/-UV)” value 0.75. Against it:
- B1 — lower, 0
- B3 — higher, 4

— publication PMC10540216, “Activity Guided Azide-methyllysine Photo-trapping for Substrate Profiling of Lysine Demethylases” (Journal of the American Chemical Society, 2023)
